What was measured:
[1] = molecular target: V5 variants (YU-2 gp120, residues 458gp120 and 459gp120)
[2] = molecular target: loop D variants (YU-2 gp120, residues 279gp120 and 280gp120)

Substance	IC50, in vitro pseudovirus neutralization [1]	IC50, in vitro pseudovirus neutralization [2]
NIH45-46^G54W(HC)S28Y(LC) (antibody)	< 0.01 µg/mL	> 0.1 µg/mL
45-46m7 (45-46m2+HC W47V) (antibody)	< 0.01 µg/mL	> 0.1 µg/mL
